Test results published in patent US20020197647A1.

Target: full-length c-Jun (Rattus norvegicus (Rat)) (UniProt P17325)
Assay: cell-based or functional assay

IL-6 dependent response of the α2-macroglobulin luciferase reporter gene in HepG2 cells (fold): 30 fold | IL-6 response of the α2-macroglobulin luciferase reporter gene in HepG2 cells with increasing Stat3 and extra c-Jun (fold above background): 4
Substance: wild-type Stat3 (transfected, expression vector pRcCMV) (from UniProt P42227 1-770)
